Here are results for 1 molecule from patent publication US11287428B2, “PD1 and PDL-1 expression during progression from myelodysplastic syndrome to acute myelogenous leukemia” (H. Lee Moffitt Cancer Center and Research Institute, Inc., priority 2016, dated 2022).

Type in all cases: cell-based, human
Assay [1] relates to CD33+CD14+ cells. Put plainly: Culture of BM cells with S100A9, PD-L1 surface expression by flow cytometry. The conditions noted are these: BM cells cultured with S100A9, 48 h. As for the experimental part:
FIG. 5. Culture of BM cells with rhS100A9 can induce the expression of PDL1 on CD33+CD14+.
(§1) FIGS. 20A-20C. […] One and half million of BM cells from Healthy donor were placed per well in 24-well plate, cultured with IgG or S100A9. After 48 h, cells were collected and stained with antibodies: anti-CD33-PE-Cy7, anti-CD34-Percp-Cy5.5, anti-CD14-BV510, anti-CD71-BV421, anti-CD38-BV711, anti-CD235a-BUV395, anti-PD-1-FITC and anti-PD-L1-APC. Near infrared live/dead dye was used for distinction of live or dead cells. Flow acquisitions were performed using LSR II cytometer and analysis was done using live cells with flowjo. (A) PD-L1 expression on CD14+/CD33+: cells positive for PD-L1 surface expression were calculated based on FMO gate setting. (B) and (C) PD-1 expression on progenitors by S100A9 or PT plasma, respectively. Positive PD-1 surface expression on CD14−/CD33−/CD71−/CD34+/CD38+ progenitors was determined using FMO gates. HD—healthy donor (n=6), MDS—myelodysplastic syndrome (n=10). Significance was determined using two-tailed unpaired t test with Welch's correction: *P<0.05, **P<0.01, ***P<0.001, error bars indicate mean±SEM.

Assay [2] relates to CD33+, CD34+, and CD71+ cells. The assay is described as follows: Culture of BM cells with S100A9, PD-1 surface expression by flow cytometry. Conditions: for PD-1 expression on CD34+ cells / PD-1 expression on CD71+ cells: BM cells cultured with S100A9, 48 h. The procedure:
FIGS. 6A and 6B. Culture of BM cells with rhS100A9 can induce the expression of PD1 on CD33+.
FIG. 7. Culture of BM cells with rhS100A9 can induce the expression of PD1 on CD34+.
FIG. 8. Culture of BM cells with rhS100A9 can induce the expression of PD1 on CD71+.
as §1

In assay [3] the test system is CD71 cells. Put plainly: Active caspase 3 staining of BM cells cultured with S100A9. Conditions: BM cells cultured with S100A9, 48 h. As for the experimental part: FIG. 21. Increased the expression of PD-1 and PD-L1 induced cell death. One and half million of BM cells from Healthy donor were placed per well in 24-well plate, cultured with IgG or S100A9. After 48 h, cells were collected and stained for cell surface with antibodies: anti-CD33-PE-Cy7, anti-CD34-Percp-Cy5.5, anti-CD14-BV510, anti-CD71-BV421, anti-CD38-BV711, and anti-CD235a-BUV395, then cells were fixed/permeabilized and stained with anti-active caspase 3-PE according to manufacturer's protocol (BD Biosciences). Near infrared live/dead dye was used for distinction of live or dead cells. Flow acquisitions were performed using LSR II cytometer and analysis was done using live cells with flowjo. (A) PD-L1 expression on CD14+/CD33+: cells positive for PD-L1 surface expression were calculated based on FMO gate setting. (B) and (C). PD-1 expression on progenitors by S100A9 or PT plasma, respectively: Positive PD-1 surface expression on CD14−/CD33−/CD71−/CD34+/CD38+ progenitors was determined using FMO gates. HD—healthy donor (n=6), MDS—myelodysplastic syndrome (n=10). Significance was determined using two-tailed unpaired t test with Welch's correction: *P<0.05, **P<0.01, ***P<0.001, error bars indicate mean±SEM.

In assay [4] the test system is C-Myc. Put plainly: C-Myc and p-stat3 induction in HD BM cells cultured with S100A9. Conditions: HD BM cultured with S100A9 for 48 h. The procedure:
FIG. 23. […] Right panel, HD BM cells 48 h treatment.

Where [5] appears, read: listed as recombinant human S100A9.

B1: S100A9: recombinant human S100A9 protein used to treat BM cells (protein, UniProt P06702 1-114, looked up)
Protein S100-A9: MTCKMSQLERNIETIINTFHQYSVKLGHPDTLNQGEFKELVRKDLQNFLKKENKNEKVIEHIMEDLDTNADKQLSFEEFIMLMARLTWASHEKMHEGDEGPGHHHKPGLGEGTP
Consider B1, for which the “PD-L1 expression on CD33+CD14+ cells” value in assay [1] is recorded as “directly induced the expression of PD-L1”. The “PD-L1 expression on CD33+CD14+ cells” value in assay [1] (setting [5]) is “induces PDL1 expression”. In assay [2], the “PD-1 expression on CD34+ cells” value was “directly induced” and the “PD-1 expression on CD71+ cells” value was “directly induced”. Further, in assay [2] (setting [5]), the “PD-1 expression on CD34+ cells” value is recorded as “induces PD1” and the “PD-1 expression on CD71+ cells” value is “induces PD1”. In assay [2] (BM cells cultured with rhS100A9), the “PD-1 expression on CD33+ cells” value is “induces PD1”. Further, in assay [3], the “active caspase 3 in CD71 cells” value is on record as “increase active caspase 3”. For the same molecule, in assay [4], the C-Myc expression entry is on record as “induced C-Myc expression” and the p-stat3 result is “induced p-stat3”.
